This note sets out measurements from US20130196383A1, “Method of Producing Dicer” (published 2013).

Series [1] has as its target T1, hDcr-CΔRBD fragment of human Dicer (Homo sapiens, UniProt Q9UPY3 SEQ:1235-1844).
T1 chain: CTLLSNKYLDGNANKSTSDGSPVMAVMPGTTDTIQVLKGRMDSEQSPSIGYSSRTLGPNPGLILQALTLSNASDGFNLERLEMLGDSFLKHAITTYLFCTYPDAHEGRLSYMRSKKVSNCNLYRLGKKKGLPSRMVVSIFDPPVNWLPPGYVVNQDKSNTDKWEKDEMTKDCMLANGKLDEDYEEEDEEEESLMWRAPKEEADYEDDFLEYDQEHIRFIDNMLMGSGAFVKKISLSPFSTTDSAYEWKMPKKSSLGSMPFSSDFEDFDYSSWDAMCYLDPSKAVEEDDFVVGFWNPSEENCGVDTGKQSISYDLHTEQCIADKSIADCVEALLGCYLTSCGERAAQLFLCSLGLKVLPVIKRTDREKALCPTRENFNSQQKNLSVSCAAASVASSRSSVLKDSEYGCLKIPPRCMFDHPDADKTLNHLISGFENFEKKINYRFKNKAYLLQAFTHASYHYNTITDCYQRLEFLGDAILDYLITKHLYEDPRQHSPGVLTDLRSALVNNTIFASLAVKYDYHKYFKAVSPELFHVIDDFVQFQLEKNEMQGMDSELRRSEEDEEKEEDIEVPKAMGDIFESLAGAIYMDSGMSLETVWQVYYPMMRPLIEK
Description: filter; out of detectable limit. The conditions noted are these: tags: expressed from pHMGWA-His6-MBP vector, E. coli. On the procedure: (§1) Filter binding assays of hDcr and different hDcr fragments were performed in the same way as previously described (7). Briefly, serial dilutions of hDcr protein were incubated in a buffer containing 20 mM Tris-HCl (pH 7.5), 25 mM NaCl, 5 mM EDTA, 1 mM dithiothreitol (DTT), 1% glycerol and ˜0.5-1 nM (1500 CPM) of 5′-end ³²P-labeled duplex RNA substrate (one strand was labeled) at room temperature for 60 min in a 30 μl of total volume. Following incubation, a 25 μl aliquot of each reaction was applied to a dot-blot apparatus equipped with three membranes: Tuffryn, Protran and Nytran (from top to bottom). After drying, the bound (on Protran) or free (on Nytran) RNAs were quantified by a Phosphorimager (GE Healthcare). Percent bound RNA, calculated as the ratio of radioactivity detected on the Protran membrane over the total input radioactivity, was plotted as a function of protein concentration. Kd was determined by global fitting to the equation: kobsd=(kₘₐₓ[…]) (Kd+[Dicer])−1, where kobsd is the observed rate constant at a given protein concentration, kₘₐₓ is the maximal rate constant with saturating protein, and Kd is the protein concentration that provides half the maximal rate. Curve fitting was conducted with KaleidaGraph (Synergy Software, Reading, Pa.).
To establish the relationship between cleavage activity and substrate binding, nitrocellulose filter-binding assays were performed with three kinds of RNAs under non-cleavage conditions: substrate dsRNA ([…]), Dicer product-mimic dsRNA (19-bp) and a pre-miRNA (pre-hlet-7a-1).

The target of series [2] is T2, hDcr-C (RNase IIIa/IIIb-dsRBD) fragment of human Dicer (Homo sapiens, UniProt Q9UPY3 SEQ:1235-1922).
T2 chain: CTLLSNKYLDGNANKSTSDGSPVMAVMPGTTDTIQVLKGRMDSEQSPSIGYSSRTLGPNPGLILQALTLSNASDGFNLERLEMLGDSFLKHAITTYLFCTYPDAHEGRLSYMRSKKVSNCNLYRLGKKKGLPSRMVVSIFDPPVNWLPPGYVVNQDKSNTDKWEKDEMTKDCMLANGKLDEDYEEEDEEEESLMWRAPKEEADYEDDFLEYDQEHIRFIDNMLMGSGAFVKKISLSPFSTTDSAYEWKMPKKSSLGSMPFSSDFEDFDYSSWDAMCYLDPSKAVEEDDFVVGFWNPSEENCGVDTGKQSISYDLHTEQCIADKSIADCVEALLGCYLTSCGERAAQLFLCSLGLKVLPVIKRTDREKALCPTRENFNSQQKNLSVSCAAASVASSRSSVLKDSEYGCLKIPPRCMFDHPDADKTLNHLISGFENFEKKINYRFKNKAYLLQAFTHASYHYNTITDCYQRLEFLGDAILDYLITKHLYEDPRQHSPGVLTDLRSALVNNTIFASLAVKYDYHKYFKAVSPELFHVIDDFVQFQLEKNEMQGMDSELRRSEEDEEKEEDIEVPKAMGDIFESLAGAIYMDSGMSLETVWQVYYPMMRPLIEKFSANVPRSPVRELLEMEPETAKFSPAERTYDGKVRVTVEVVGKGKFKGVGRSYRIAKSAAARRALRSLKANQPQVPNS
The series is described as follows: filter; out of detectable limit; almost no binding. The conditions noted are these: tags: expressed from pHMGWA-His6-MBP vector, E. coli; label: 5'-32P; hairpin pre-miRNA, 73 nt. As to the method: as §1, with “Pa.). […]” for “Pa.).”

The target of series [3] is T3, DP, tandem DUF283-PAZ domains of human Dicer (605-1068), bacterially expressed.
T3 chain: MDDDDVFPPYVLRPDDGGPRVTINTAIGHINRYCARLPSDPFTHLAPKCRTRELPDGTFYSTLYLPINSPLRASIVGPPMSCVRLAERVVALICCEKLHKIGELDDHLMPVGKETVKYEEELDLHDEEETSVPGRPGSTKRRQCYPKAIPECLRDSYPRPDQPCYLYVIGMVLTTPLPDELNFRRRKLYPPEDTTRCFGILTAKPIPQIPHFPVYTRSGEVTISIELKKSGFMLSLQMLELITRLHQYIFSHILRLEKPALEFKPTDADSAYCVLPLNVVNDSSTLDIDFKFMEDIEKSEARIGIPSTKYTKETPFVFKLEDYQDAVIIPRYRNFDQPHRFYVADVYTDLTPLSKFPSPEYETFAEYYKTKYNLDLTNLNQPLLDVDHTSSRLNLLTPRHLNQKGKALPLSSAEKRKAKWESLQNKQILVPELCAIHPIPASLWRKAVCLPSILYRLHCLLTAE

Series [4] addresses T4, hDcr-N, N-terminal fragment of human Dicer (1-1068; ATPase/hel, DUF283 and PAZ domains), co-expressed in Sf9 … (human, UniProt Q9UPY3 1-1068).
T4 construct: Co-expressed with hDcr-C in baculovirus-infected Sf9 cells; It could not be expressed alone
T4 sequence: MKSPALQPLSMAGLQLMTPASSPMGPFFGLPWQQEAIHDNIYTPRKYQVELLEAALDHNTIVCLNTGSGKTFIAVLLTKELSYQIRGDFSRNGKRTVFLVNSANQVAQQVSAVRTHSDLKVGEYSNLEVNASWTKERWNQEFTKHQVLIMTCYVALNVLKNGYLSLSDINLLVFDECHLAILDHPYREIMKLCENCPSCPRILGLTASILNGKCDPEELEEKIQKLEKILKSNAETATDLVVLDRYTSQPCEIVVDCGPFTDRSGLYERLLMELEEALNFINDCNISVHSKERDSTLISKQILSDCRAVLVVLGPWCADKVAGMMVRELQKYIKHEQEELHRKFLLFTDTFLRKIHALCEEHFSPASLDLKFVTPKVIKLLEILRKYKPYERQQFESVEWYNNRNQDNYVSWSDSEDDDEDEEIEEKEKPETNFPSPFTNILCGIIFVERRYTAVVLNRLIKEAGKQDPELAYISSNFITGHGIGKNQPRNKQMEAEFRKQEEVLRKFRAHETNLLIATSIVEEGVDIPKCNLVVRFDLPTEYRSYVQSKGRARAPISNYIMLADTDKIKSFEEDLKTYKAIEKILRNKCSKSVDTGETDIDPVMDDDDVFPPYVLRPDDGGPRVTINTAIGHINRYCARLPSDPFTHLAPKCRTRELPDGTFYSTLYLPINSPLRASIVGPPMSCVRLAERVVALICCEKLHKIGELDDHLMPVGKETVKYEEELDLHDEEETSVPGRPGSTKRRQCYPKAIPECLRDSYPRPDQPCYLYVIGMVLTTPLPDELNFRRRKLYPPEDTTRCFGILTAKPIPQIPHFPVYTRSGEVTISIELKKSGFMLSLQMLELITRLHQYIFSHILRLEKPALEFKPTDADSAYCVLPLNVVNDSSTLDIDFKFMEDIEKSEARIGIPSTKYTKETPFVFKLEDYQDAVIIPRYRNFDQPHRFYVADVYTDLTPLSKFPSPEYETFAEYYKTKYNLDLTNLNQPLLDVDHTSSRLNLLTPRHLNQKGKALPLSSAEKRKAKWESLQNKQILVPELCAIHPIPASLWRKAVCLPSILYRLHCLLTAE
The series is described as follows: co-expression in Sf9 cells, co-purification.

B1: 37ab (dsRNA)
RNA 1: UGAGGUAGUAGGUUGUAUAGUUUGAAAGUUCACGAUU
RNA 2: UCGUGAACUUUCAAACUAUACAACCUACUACCUCAUU
As to B1, the binding result in series [1] (label: 5'-32P on one strand (37a), perfectly matched 35-bp duplex) is “no binding”.

B2: pre-hlet-7a-1 (ssRNA)
RNA: UGAGGUAGUAGGUUGUAUAGUUUUAGGGUCACACCCACCACUGGGAGAUAACUAUACAAUCUACUGUCUUACC
In the case of B2, the binding result is on record as “no binding” in series [2] and “no binding” in series [1] (label: 5'-32P, hairpin pre-miRNA, 73 nt).

B3: hDcr-C, C-terminal fragment of human Dicer (1235-1922; two RNase III domains and C-terminal dsRBD), co-expressed in Sf9 cells (enzyme)
chain: CTLLSNKYLDGNANKSTSDGSPVMAVMPGTTDTIQVLKGRMDSEQSPSIGYSSRTLGPNPGLILQALTLSNASDGFNLERLEMLGDSFLKHAITTYLFCTYPDAHEGRLSYMRSKKVSNCNLYRLGKKKGLPSRMVVSIFDPPVNWLPPGYVVNQDKSNTDKWEKDEMTKDCMLANGKLDEDYEEEDEEEESLMWRAPKEEADYEDDFLEYDQEHIRFIDNMLMGSGAFVKKISLSPFSTTDSAYEWKMPKKSSLGSMPFSSDFEDFDYSSWDAMCYLDPSKAVEEDDFVVGFWNPSEENCGVDTGKQSISYDLHTEQCIADKSIADCVEALLGCYLTSCGERAAQLFLCSLGLKVLPVIKRTDREKALCPTRENFNSQQKNLSVSCAAASVASSRSSVLKDSEYGCLKIPPRCMFDHPDADKTLNHLISGFENFEKKINYRFKNKAYLLQAFTHASYHYNTITDCYQRLEFLGDAILDYLITKHLYEDPRQHSPGVLTDLRSALVNNTIFASLAVKYDYHKYFKAVSPELFHVIDDFVQFQLEKNEMQGMDSELRRSEEDEEKEEDIEVPKAMGDIFESLAGAIYMDSGMSLETVWQVYYPMMRPLIEKFSANVPRSPVRELLEMEPETAKFSPAERTYDGKVRVTVEVVGKGKFKGVGRSYRIAKSAAARRALRSLKANQPQVPNS
With B3, in series [3], the “RNA cleavage assay (37ab dsRNA), size pattern of the products” value is on record as “addition of the DP polypeptide to the hDcr-C cleavage reaction led to RNA products similar to those produced by full-length Dicer”. Besides, the binding result in series [4] was “binds”.
